Target: T1, AβpE3-38 (human, UniProt P05067 674-709, pyroglutamate at position 3 (N-terminal residue))
T1 construct: range 3-38; The range counts on Aβ numbering, not on the APP precursor; also called human AβpE3-38
Experiment: ELISA screening of hybridoma clones
Description: The AβpE3 oligomere specific antibodies 9D5H6 (IgG2b) and 8C4D2 (IgG1) were generated by immunizing three Balb/c mice with AβpE3-38. After preparation of the lymph nodes cells were fused with the myeloma cell line P3-X63-Ag8. The hybridoma supernatants of mixed clones were screened by ELISA and subcloned. The monoclonal antibodies 9D5 and 8C4 were selected by ELISA against different N-terminal Aβ epitopes. Clones producing signals with AβpE3-38 and AβpE3-42, but no signal with […] were isolated and further characterized. For comparison, Aβ antibodies 4G8 (Aβ epitope 17-24; Covance), W0-2 (Aβ epitope 4-8; The Genetics Company), NT78 (against generic Aβ1-16, Synaptic Systems) and 2-48 (against N-terminal AβpE3, Synaptic Systems; Wirths, O., et al. J Neural Transm 117, 85-96 (2010)) were used. GFAP (rabbit) and IBA1 (rabbit) antisera were from Synaptic Systems and Wako Pure Chemicals respectively. Peptides were purchased from PSL (Heidelberg, Germany), reconstituted as indicated below and immediately frozen until further use.

T1 sequence (P05067 674-709): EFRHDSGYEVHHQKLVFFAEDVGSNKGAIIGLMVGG

B1: PG3-38 9D5H6 (antibody, V domains shown)
VH: QLQQSGAELMKPGASVKISCKATGYTFSSYWIEWVKQRPGHGLEWIGEILPGRGSTHYNEKFKGKATFTADTSSNTAYMQLSSLTSEDSAVYYCARSPITTSDYWGQGTTLTVSS
VL: DVVMTQTPLSLPVSLGDQASISCRSSQSLLHSNGNTYLHWYLQKPGQSPKLLIYKVSNRFSGVPDRFSGSGSGTDFTLKISRVEAEDLGVYFCSQSTHVPLTFGAGT
notes: The printed VH starts at QLQQ and the printed VL ends at FGAGT, so both may be slightly truncated; also called antibody obtainable from hybridoma DSM ACC3056
binding result: binds

Source: patent US20130295095A1 (GEORG AUGUST UNIVERSIT T G TTINGEN STIFTUNG FFENTLICHEN …, published 2013)
